Columns and labels:
Snu23-DHFR = biological target: T1, Snu23-DHFR (S. cerevisiae, UniProt Q12368 1-194, Cy5-TMP fluorophore bound to the DHFR tag); assay: colocalization single molecule spectroscopy
T1 sequence (looked up): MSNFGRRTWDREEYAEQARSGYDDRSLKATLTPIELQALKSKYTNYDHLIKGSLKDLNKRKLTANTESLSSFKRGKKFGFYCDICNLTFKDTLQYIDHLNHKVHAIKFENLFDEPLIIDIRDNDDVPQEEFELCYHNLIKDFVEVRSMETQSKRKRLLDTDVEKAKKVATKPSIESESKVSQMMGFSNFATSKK

Spp381-DHFR = biological target: T2, Spp381-DHFR (S. cerevisiae, UniProt P38282 1-291, Cy5-TMP fluorophore bound to the DHFR tag); assay: colocalization single molecule spectroscopy
T2 sequence (looked up): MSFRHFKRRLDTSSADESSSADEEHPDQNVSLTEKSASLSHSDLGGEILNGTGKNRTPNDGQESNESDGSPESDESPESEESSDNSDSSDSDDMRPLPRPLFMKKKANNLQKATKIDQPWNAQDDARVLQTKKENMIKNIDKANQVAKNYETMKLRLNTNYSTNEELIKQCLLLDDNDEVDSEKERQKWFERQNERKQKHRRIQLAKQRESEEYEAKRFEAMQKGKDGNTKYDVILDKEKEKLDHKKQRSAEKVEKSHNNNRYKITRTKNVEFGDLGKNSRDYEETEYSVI

B1: Prp38-SNAP (natural protein)
chain: MAVNEFQVESNISPKQLNNQSVSLVIPRLTRDKIHNSMYYKVNLSNESLRGNTMVELLKVMIGAFGTIKGQNGHLHMMVLGGIEFKCILMKLIEIRPNFQQLNFLLNVKNENGFDSKYIIALLLVYARLQYYYLNGNNKNDDDENDLIKLFKVQLYKYSQHYFKLKSFPLQVDCFAHSYNEELCIIHIDELVDWLATQDHIWGIPLGKCQWNKIYNSDEESSSSESESNGDSEDDNDTSSES
modifications: SNAP-Surface 549 dye (SNAP-DY549) on the SNAP tag
event pairs (of those arriving together) with simultaneous release (Snu23-DHFR): 77% | event pairs with simultaneous arrival at the pre-mRNA (Snu23-DHFR): 91% | event pairs (of those arriving together) with simultaneous release (Spp381-DHFR): 77% | event pairs with simultaneous arrival at the pre-mRNA (Spp381-DHFR): 91%

Reference: article PMC11326307 (bioRxiv, 2024)
